We go through 20 sequences from a protein production outcome set (Wang et al. 2014).

The data set in a line: label from the status in PepcDB records.

“MWKCHRYMMSSHLHRQLDLINMEIKTIASGSKGNAYVISSGRSQLLIECGVNFDKIRKALNFDLSAVEACLISHEHGDHVAGVKKMLRTSSIKIYASEGTLSALNVPDSRQFILKEKDAQNIGEWIILPFQTEHDAKEPLGFMIQRHNERLLFITDSYFVRYKFKNINYLMIECNYSADILEENVINKVIHQVQKKRVLQSHFSLENVKEFLNANDLSQLREIHLLHISERNGDPERFKKEIQAMTGVPVYV”: the protein production entry is “failed”.
Consider “MWKPLLIAVGLLSLVCGAIGVVLPVIPTTPFLLLSAFCFTRSSERLHNYLVSHRIFGEYISNYYNHAMTPQHKFRTLLTLWCGIILSCFLIGATIPWIILPLIATGVSIHIIRLKPRPEATPTASSPEADSGSEPHFADDHKA”, for which the protein production entry was “failed”.
For the sequence “MWLLCDCLLCFPLSPEEFLTEILDLLELVFVILVVCEWKPKRFAGEFRLLMEQRVQLRVGTMETISNEGDVDREQVLETFGIENETGKETNGSRSFDVGYSSGDTLETLPKASKVDISPADVLKTLFFILVWYTFSTFLTLYNKTLLGDDLGKFPAPLLMNTIHFSIQAVLSKMITWYWSGRFQPDVTISWRDYFVRVVPTALGTAMDINLSNESLVFISVTFATMVSYFIYYVQICSPNISSSVCFCLQSPSLKLFGIISVISAGVLLTVAKETEFEFWGFVFVMLAAVMSGLKNPFIFMSCVAPVMAIATGLLSLLLDPWSEFRDNKYFDSGAHFARTCFLMLFGGALAFCMVLTEYVLVSVTSAVTVTIAGVVKEAVTIVVAVFYFHDEFTWLKGVGLMIIMVGVSLFNWYKYDKLQKGHKTEEEKQLQAPSQTGKYVILDEMDDQENSP”, the protein production entry is on record as “failed”.
Then “MWLRSYRITFSCLTRLKTYRSSWKKLYSTSQTVDSKEVKTFQALAHSWWDEQGKFAPLHSMNDLRVPFIRDNLLKTSTNHDPGKPLSGMKILDVGCGGGLLTEPLGRLGASVVGIDPVAENIKIAQHHKSFDPVLDKRIQYRVCSLEETLNENAECFDAVVASEVVEHVNNLEMFIQCCYQVLKPGGSLFITTVNKTQLSYVLGIVFSEQIAGIVPKGTHTWEKFVSPEKLESILEPNGLSVETVAGMVYNPFSGYWHWTENTSLNYAAHAVRARAQEHLEPAESA”, with “failed”; and “MWNGREYMSEPASPEKKVIIIAGPNGAGKTTFAEEFLPQEAQCLTFINADLIAAGLAPFEPEQAAFRAGRLMLEEIYNHAQRGQNFAFETTLSGRSYARLIPTWQAQSYIVKLFFLQLLSPELAIARVAQRVRAGGHHVPEAIIRRRFAAGLHNLETLYKLIVDEWVCYDNSGNEPVLINKGGKLLEHHHHHH”, with “not failed”.
“MWPNGSSLGPCFRPTNITLEERRLIASPWFAASFCVVGLASNLLALSVLAGARQGGSHTRSSFLTFLCGLVLTDFLGLLVTGTIVVSQHAALFEWHAVDPGCRLCRFMGVVMIFFGLSPLLLGAAMASERYLGITRPFSRPAVASQRRAWATVGLVWAAALALGLLPLLGVGRYTVQYPGSWCFLTLGAESGDVAFGLLFSMLGGLSVGLSFLLNTVSVATLCHVYHGQEAAQQRPRDSEVEMMAQLLGIMVVASVCWLPLLVFIAQTVLRNPPAMSPAGQLSRTTEKELLIYLRVATWNQILDPWVYILFRRAVLRRLQPRLSTRPRRVSLCGPAWSTVARSRLTATSASRVQAILVPQPPEQLGLQA”: the protein production result is “failed”.
For “MWQNFYLTTLKLSQYTQEEKPILPADNMDPRALASVHAWEHGDFMCKGYIQSRLSDPLYNVYSNVETSNELWDSLDKKYQTKDAGSQKYAAAKFLDYKMVDSRPMMVQVEELTCLFHDI”, the protein production result was “not failed”.
To “MWQQHLAILPILVPLLAALLQLLPWGDRPQPKRRAIGLLSSILTLILTIALLVQVNQDQMIVYALGNWSAPFGIVLMVDKLSALMMLVTAILALPVLIYGCYAEDNLGSHFQALFQFQIMGIMGAFATGDIFNLFVFFEVLLISSYALLMHGGGKFRLRTTLHYVLLNLLGSALFLISVGTLYGVTGTLNMADLATQVQQLSGDQAALAKAGGMMLLIVFGIKAAILPLHFWLPQAYSTTTGVVAALFAIMTKVGVYAIVRVYTLIFGPEANELALIAHDWLWVMGLVTMLAGAIGIIGARDLRLLVAYLVVISIGTLIATYSLNGIATTGAMLFYLIHSTFITGALFLLADLIAFERGKTASRIVSGKKMANHSAYSVMFLIAAIAIIGLPPLSGFVGKLMIMESASPTGASFWLWGAMLGATLIMLISVTRAGSKMLWHTLSGKANEQSAPLGKRAAVVMLLSLSVVMTLFASPIRNYTDDVAEQLYDIDQYPSRVLTKGAE” belongs “failed”; to “MWRDTMSAFLGELIGTALLIVLGGGVCAGVSLKKSFAKDSGWIVITMGWGLAVAVAAYAVGSISGAHLNPALTIGLAFKGAFPWSDVPGYIVAQMIGAIIGAVIVYLHYLPHWKETEDPGTKLGVFATGPAIPNTFANLLSEMIGTFVLVFGILAIGANKFADGLNPFIVGFLIVSIGLSLGGTTGYAINPARDLGPRIAHFFLPIAGKGGSNWKYAWIPVVGPILGGSLAGLFHQVVFEGKQNSALIYVIIATVIVLAISYMTSKKSGSNTNSRKVA”, “failed”.
Then “MWRRSLTESHSNELRLELTSRIVSAYLSRNVIAPSELPHLIQQTYGSLGKTSEPTKTPATVEEQRPAVPIKKSVTDDFIVCLEDGKSFKSLKRHLMAKYALTPEQYREKWKLPADYPMVAPNYARKRSELARATGLGKKSAANLSPSLQAVRSA”, with “not failed”.
To “MWRSLLLPTCSHALIELHFFSHYCTIMMNQNTQPTNNLKDKKITYNFNKLQKRLRRNVGNAIANFNMIEAGDKVMVCLSGGKDSYTLLDILLNLKLSAPINFDIVAVNLDQKQPGFPEHILPEYLASIGVEYKIVQENTYGIVKEKIPEGKTTCSLCSRLRRGILYRTATELGATKIALGHHRDDMLETLFLNMFYNGKLKSMPPKLISDDAKHIVIRPLAYCKEKDIEKYAEAKQFPIIPCNLCGSQPNLQRQVVKEMLQNWDRQYPGRIETMFSALQNVTPSHLCDTQLFNFKAVKHGEMINGIEGDIAFDKMDIPMTLNIQEEDEKQAYTQNGTIQFKAV” belongs “failed”.
With “MWSIFRKEIAVFLNSLIAYLVILVFLTFIGVFMWVLPASSILDYGYAEMDTLFSYGPLAFLLLIPAITMRSFAEEKKDGTIELLLTKPLSDWQLLLGKYLSACTLVALALIPTVLYYISVYQLGKPVG”, the protein production result is “failed”.
Then “MWSILALGAVERCIHHIIDLDAITRIQTNQLQGKLLRVVTDSPQLSVDVFFDENRVRLEPTVTGQSQTPSIFEQRPFDPQYKMTDATATLHVKNIVELVKLLFNDPDQIGNIPVEGDYHLLQDIQKIMQQSEPDLAAHLSPWIGPALAHELGKIRLAPQQLKRSMQSHLFFVEDALKEDSGLFAPRWQMDDLQHATRQLNQELDRVEARLQQLNLQLQSDN”, with “failed”.
For the sequence “MWWGVAAALLANVLYSTGFVLEKRALASLPEVDIRRPARLLRLVLGSPLWIGGSLSLAAGFGAQLAVYRTLPIAAAQGIFVSGLVLLVLLSARLLGEETTGRERYALGAILAALLMVVLSLREGSDKVSRSAPVPLILLVCVPSLAMGVWLYGSAERRARHRHRMPTTGVEYGVAVGLLYGVSSLAIKGVSSYLTPADGLGGAVVGLLRSPYPYLLLFTGVFGLVMSQAALQRCRASLIVPVCTTVTCLFTAVLGTLAFGEALPHEPLRLALRLAGTALAVSVLLAMPKHDTAPQPSAAPKELTPP”, the protein production result is recorded as “failed”.
For “MWWSGLASQSKAQETPGRRGLEERKQLIMEIYNSLRSADIASIEFEGPEIAVYIRNPKFIVENENVVKDLARKLRKRIVVRTHPKSRKSMEYTIKFIRENVPPDVGIVDIQFDDVLGEVRVIAEKPGKLMGRGKVFRNLVLAETGWRLEVYRKPLLQSGLLDSVLRHLQRHAEERRRALRDIGERIFRDTLIGTRHVRVVGLGSFGEVGRSAILVDTGESKVLLDAGLSPSGYGPDSYPYYWSPEFRVDELDAVVISHAHLDHVGTLPLLFKYGFRGPVYATPPTRDIMIIVLRDLINLMRKAQGEPPFEPRDVEKALTRLIPVNYNTVTDVAPDIKMTFINAGHILGSSMVHLHIGQGLYNILYTADFKFYRIKNDRSTRLLPPAEYSFQRVEALIMEATYGSKETQPRAEAEEELINLVNKVYKRGGKLLIPVMAVGRGQEILVVLNEALRSGKIPEIPIYVDGMVYEVTAVYTNYPELLVKPIRDRILKQGENPFEGPTTVYVTDHYKRDEAMYSDKPAIILSTSGMMNGGPIVEYFKYLADDPRNALAFVSYQAPGTLGRRLQSGEREIELEMDGGIRRIKVNMEIVSIEGFTGHSTRGELLSFLRRLNPKPRNIVLNHGEPSAIAALAHTVKTGWSKLGFESPPIIEAPENLEGVRLYPRNLKMKLALQHS”, the protein production result was “failed”.
Consider “MYADYEYYEKEYLLGKEPVIAERNYLYYEKQARAEVDKITFNRCRGLDEIPEEVKDCVCDVAEYLCKYDRYSGSDAPGPLASFGNDGETGTYDLSNSIYTESKRKEKIQETLYKHLADTGLLYSGR”, for which the protein production result is “failed”.
As to “MYCKGRREREAYIVVKIDLITGFLGSGKTTFIRKYVKYLVDKGYNVGILENDYGAVNVDMMLLQDLMGPNCHAEMVAGGCGEDCHKRRFKTKLIAMGMSGYDRVIVEPSGIFDVDEFFDTLHEEPLDRWYEVGSIIAIVDAKLDTDMSRQSRYVLASEIANCGALVMSKTSGVSEDEISHTKEFVNKTLEEFQCRRRFDGDVITKAWELFGSEDYERFMSVGYKLNDFTKLWFKQSDVYSSVYIMNRNFTREQLVDIVNRVFSDKDCGDVFRIKGFFSVEQDSWLELNATVHKTEIKPIDKGQKIIIIIGSDLMEDKIKQYFEE”, the protein production entry was “failed”.
Then “MYDMVREKTYYFMIVERITIMTEKMTRMTQFVKEEIANAITHGIGAILSIPALIILIIHASKHGTASAVVAFTVYGVSMFLLYLFSTLLHSIHHPKVEKLFTILDHSAIYLLIAGTYTPFLLITLRGPLGWTLLAIIWTLAIGGIIFKIFFVRRFIKASTLCYIIMGWLIIVAIKPLYENLTGHGFSLLLAGGILYSVGAIFFLWEKLPFNHAIWHLFVLGGSAMMFFCVLFYVLPTAS”, with “failed”.
Then “MYDNENPNGFGSNPEENNDDNISGTENNNFEEVNSQQVSQDAVNSSEQNTEQTAEQESSVYRQSYVNDEHHNADDVSGNGTYYSQGSNNSSNDSTQNGSYYNNTQDGSYYNSNSNNSQNNGYYYSTNDSQTNNGYNYNSNNNNNGNGKKKKKKRTLIAVVAVCVVLLAGTIGISAAYFSKNKDSLTNVLEDGTLSNNNNNSNSNNDNSSDSGNYESIGSTNTQNDANSSSTSGVTVTDVSSVVSSAMPSVVAITSKTLVESRNDYSQDIWEYYFGGGNSGNNKSNSYEEDAAGSGIIVDQTSTELLIVTNNHVVEGADSLKIQFAGTESKDSVDGYIKGTDSTKDVAVVAVKLKDIPSDVLKNIKKATLGDSDKVNVGEGVIAIGNALGYGQSVTTGIISAKDRKVQLENQTMTLLQTDAAINGGNSGGALLNASGEVIGINVAKYSSSGSSSNASVEGMGFAIPISSVKDIISDLETKETRTKVSEDERGYLGISGFDVDEQTSQAYSIPQGIQVQSVVKGGPAENAGIAASDVITKFDGQDVSSMASLQSMLEYYKKGEQVKVTIEYRDGREYKTKDVTVTLGDKSVIETTQNAAN”, with “failed”; and “MYDYSILPNRIILCVDLRSFYASVSCIKMGLDPMHTKLAVVGDVNRNGSIVLAATPPLKALGVKKMARLYEIPRRKDILVVNPIMSTYIKCSNYITKLALQYVPIEDFHQYSIDEFFMDITDSIHLFAQDPYEFAMKFKREIYDHTRIECTIGIAPNPLMSKVALDIEAKKNKDGIAFWQYEDIPTKLWSIRPLNKFWGISYKTEEKLNRKGIYSIGDLANYPLKYLKQSFGKIGEELHLHSHGIDFSRISEKYVPATTSIGKSQILMRDYTIEEFPIILLEHIEEVCYRLRRQTKLAQTIHFSVGYSKSYTGGIRKTHTLNRPTNLTMDIYHICTYFLHQQYTGEPIRSINISLTNLIQEGEEQISLFDNVTKREQEMKLTKVMDEIRTKFGKNSILRGISYTHSATARHRNTLIGGHKS”, with “failed”.
